Test results reported in PMC10023946 (The Journal of Biological Chemistry, 2023).
Changes are numbered by the printed parent chain. In names and notes the source's numbering stands.

What was measured:
[1] = biological target: T1, cytochrome P450 17A1 (CYP17A1) (Homo sapiens, UniProt P05093); assay type: biochemical
T1 sequence (P05093 20-508): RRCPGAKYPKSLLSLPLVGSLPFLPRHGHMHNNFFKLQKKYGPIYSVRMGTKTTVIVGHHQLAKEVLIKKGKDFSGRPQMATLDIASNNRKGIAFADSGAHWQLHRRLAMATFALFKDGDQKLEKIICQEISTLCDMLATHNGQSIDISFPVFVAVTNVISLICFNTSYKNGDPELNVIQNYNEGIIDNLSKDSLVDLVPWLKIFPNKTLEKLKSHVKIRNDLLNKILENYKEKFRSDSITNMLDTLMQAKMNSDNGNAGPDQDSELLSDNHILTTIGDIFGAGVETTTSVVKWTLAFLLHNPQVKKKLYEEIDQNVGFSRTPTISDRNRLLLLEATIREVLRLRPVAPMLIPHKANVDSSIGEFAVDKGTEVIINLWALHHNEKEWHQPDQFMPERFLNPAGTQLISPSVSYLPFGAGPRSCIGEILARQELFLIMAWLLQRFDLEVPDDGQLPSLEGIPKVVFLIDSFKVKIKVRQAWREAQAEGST

[2] = biological target: T2, CYP17A1 N52Y (Homo sapiens, UniProt P05093, N52Y); assay: X-ray co-crystal structure, […] Å; assay type: biochemical
T2 sequence (P05093 20-508 N52Y): T1 sequence (P05093 20-508) with N33Y

[3] = substrate: CC(=O)[C@@]1(O)CC[C@H]2[C@@H]3CC=C4C[C@@H](O)CC[C@]4(C)[C@H]3CC[C@@]21C; assay: purified protein; settings: heme displacement of heme-coordinated water
[4] = substrate: CC(=O)[C@H]1CC[C@H]2[C@@H]3CCC4=CC(=O)CC[C@]4(C)[C@H]3CC[C@]12C; assay: purified protein

Molecule `C[C@]12CC[C@H](O)CC1=CC[C@@H]1[C@@H]2CC[C@]2(C)C(c3cccnc3)=CC[C@@H]12` [abiraterone] has an IC50 [1] of 69 ± 5 nM and an IC50 [2] of 51 ± 2 nM.

B1: CYP17A1 N52Y (Homo sapiens; N52Y) (protein)
chain: T1 sequence (P05093 20-508) with N33Y
In the case of B1, the Km [3] is reported as 0.6 ± 0.1 µM and the Km ([4]; heme displacement of heme-coordinated water) is reported as 1.60 ± 0.09 µM.

B2: cytochrome P450 17A1 (CYP17A1) (Homo sapiens) (protein)
chain: T1 sequence (P05093 20-508)
In the case of B2, the Km ([4]; heme) is reported as 5.2 ± 0.5 µM.
